From patent US20210388087A1 (Chugai, published 2021)
Residue numbers refer to the chain shown, from its start.

B1: GLS3000 G89H (antibody, name in Kabat numbering, V domains shown)
VH: QVQLVESGGGVVQPGRSLRLSCAASGFTFSNAWMHWVRQAPGKGLEWVAQIKAKSNNYATYYAESVKGRFTISRDDSKNSLYLQMNSLKTEDTAVYYCRYVHYGAYYGVDAWGQGTTVTVSS
VL: DIVMTQSPLSLPVTPGEPASISCRSSQSLVHSNRNTYLHWYQQKPGQAPRLLIYKVSNRFSGVPDRFSGSGSGTDFTLKISRVEAEDVGVYYCHQGTQVPYTFGQGTKLEIK
notes: one-arm IgG as m2
B2: GLS3000 G89I (antibody, name in Kabat numbering, V domains shown)
VH: B1 VH
VL: B1 VL with H94I
notes: one-arm IgG as m2
B3: GLS3000 G89K (antibody, name in Kabat numbering, V domains shown)
VH: B1 VH
VL: B1 VL with H94K
notes: one-arm IgG as m2
B4: GLS3000 G89L (antibody, name in Kabat numbering, V domains shown)
VH: B1 VH
VL: B1 VL with H94L
notes: one-arm IgG as m2
B5: GLS3000 G89M (antibody, name in Kabat numbering, V domains shown)
VH: B1 VH
VL: B1 VL with H94M
notes: one-arm IgG as m2
B6: GLS3000 G89N (antibody, name in Kabat numbering, V domains shown)
VH: B1 VH
VL: B1 VL with H94N
notes: one-arm IgG as m2
B7: GLS3000 G89P (antibody, name in Kabat numbering, V domains shown)
VH: B1 VH
VL: B1 VL with H94P
notes: one-arm IgG as m2
B8: GLS3000 G89Q (antibody, name in Kabat numbering, V domains shown)
VH: B1 VH
VL: B1 VL with H94Q
notes: one-arm IgG as m2
B9: GLS3000 G89R (antibody, name in Kabat numbering, V domains shown)
VH: B1 VH
VL: B1 VL with H94R
notes: one-arm IgG as m2
B10: GLS3000 G89T (antibody, name in Kabat numbering, V domains shown)
VH: B1 VH
VL: B1 VL with H94T
notes: one-arm IgG as m2
B11: GLS3000 G89V (antibody, name in Kabat numbering, V domains shown)
VH: B1 VH
VL: B1 VL with H94V
notes: one-arm IgG as m2
B12: GLS3000 G89W (antibody, name in Kabat numbering, V domains shown)
VH: B1 VH
VL: B1 VL with H94W
notes: one-arm IgG as m2
B13: GLS3000 G89Y (antibody, name in Kabat numbering, V domains shown)
VH: B1 VH
VL: B1 VL with H94Y
notes: one-arm IgG as m2
B14: GLS3000 G91A (antibody, name in Kabat numbering, V domains shown)
VH: B1 VH
VL: B1 VL with H94G, G96A
notes: one-arm IgG as m2
B15: GLS3000 G91D (antibody, name in Kabat numbering, V domains shown)
VH: B1 VH
VL: B1 VL with H94G, G96D
notes: one-arm IgG as m2
B16: GLS3000 G91E (antibody, name in Kabat numbering, V domains shown)
VH: B1 VH
VL: B1 VL with H94G, G96E
notes: one-arm IgG as m2
B17: GLS3000 G91P (antibody, name in Kabat numbering, V domains shown)
VH: B1 VH
VL: B1 VL with H94G, G96P
notes: one-arm IgG as m2
B18: GLS3000 G91S (antibody, name in Kabat numbering, V domains shown)
VH: B1 VH
VL: B1 VL with H94G, G96S
notes: one-arm IgG as m2
B19: GLS3000 G91T (antibody, name in Kabat numbering, V domains shown)
VH: B1 VH
VL: B1 VL with H94G, G96T
notes: one-arm IgG as m2
B20: GLS3000 G91Y (antibody, name in Kabat numbering, V domains shown)
VH: B1 VH
VL: B1 VL with H94G, G96Y
notes: one-arm IgG as m2
B21: GLS3000 H27dD (antibody, name in Kabat numbering, V domains shown)
VH: B1 VH
VL: B1 VL with H31D, H94G
notes: one-arm IgG as m2
B22: GLS3000 H27dE (antibody, name in Kabat numbering, V domains shown)
VH: B1 VH
VL: B1 VL with H31E, H94G
notes: one-arm IgG as m2
B23: GLS3000 H27dF (antibody, name in Kabat numbering, V domains shown)
VH: B1 VH
VL: B1 VL with H31F, H94G
notes: one-arm IgG as m2
B24: GLS3000 H27dG (antibody, name in Kabat numbering, V domains shown)
VH: B1 VH
VL: B1 VL with H31G, H94G
notes: one-arm IgG as m2
B25: GLS3000 H27dI (antibody, name in Kabat numbering, V domains shown)
VH: B1 VH
VL: B1 VL with H31I, H94G
notes: one-arm IgG as m2
B26: GLS3000 H27dK (antibody, name in Kabat numbering, V domains shown)
VH: B1 VH
VL: B1 VL with H31K, H94G
notes: one-arm IgG as m2
B27: GLS3000 H27dL (antibody, name in Kabat numbering, V domains shown)
VH: B1 VH
VL: B1 VL with H31L, H94G
notes: one-arm IgG as m2
B28: GLS3000 H27dM (antibody, name in Kabat numbering, V domains shown)
VH: B1 VH
VL: B1 VL with H31M, H94G
notes: one-arm IgG as m2
B29: GLS3000 H27dN (antibody, name in Kabat numbering, V domains shown)
VH: B1 VH
VL: B1 VL with H31N, H94G
notes: one-arm IgG as m2
B30: GLS3000 H27dP (antibody, name in Kabat numbering, V domains shown)
VH: B1 VH
VL: B1 VL with H31P, H94G
notes: one-arm IgG as m2
B31: GLS3000 H27dQ (antibody, name in Kabat numbering, V domains shown)
VH: B1 VH
VL: B1 VL with H31Q, H94G
notes: one-arm IgG as m2
B32: GLS3000 H27dR (antibody, name in Kabat numbering, V domains shown)
VH: B1 VH
VL: B1 VL with H31R, H94G
notes: one-arm IgG as m2
B33: GLS3000 H27dS (antibody, name in Kabat numbering, V domains shown)
VH: B1 VH
VL: B1 VL with H31S, H94G
notes: one-arm IgG as m2
B34: GLS3000 H27dT (antibody, name in Kabat numbering, V domains shown)
VH: B1 VH
VL: B1 VL with H31T, H94G
notes: one-arm IgG as m2
B35: GLS3000 H27dV (antibody, name in Kabat numbering, V domains shown)
VH: B1 VH
VL: B1 VL with H31V, H94G
notes: one-arm IgG as m2
B36: GLS3000 H27dW (antibody, name in Kabat numbering, V domains shown)
VH: B1 VH
VL: B1 VL with H31W, H94G
notes: one-arm IgG as m2
B37: GLS3000 H27dY (antibody, name in Kabat numbering, V domains shown)
VH: B1 VH
VL: B1 VL with H31Y, H94G
notes: one-arm IgG as m2
B38: GLS3000 H34A (antibody, name in Kabat numbering, V domains shown)
VH: B1 VH
VL: B1 VL with H39A, H94G
notes: one-arm IgG as m2
B39: GLS3000 H34D (antibody, name in Kabat numbering, V domains shown)
VH: B1 VH
VL: B1 VL with H39D, H94G
notes: one-arm IgG as m2
B40: GLS3000 H34E (antibody, name in Kabat numbering, V domains shown)
VH: B1 VH
VL: B1 VL with H39E, H94G
notes: one-arm IgG as m2
B41: GLS3000 H34F (antibody, name in Kabat numbering, V domains shown)
VH: B1 VH
VL: B1 VL with H39F, H94G
notes: one-arm IgG as m2
B42: GLS3000 H34G (antibody, name in Kabat numbering, V domains shown)
VH: B1 VH
VL: B1 VL with H39G, H94G
notes: one-arm IgG as m2
B43: GLS3000 H34I (antibody, name in Kabat numbering, V domains shown)
VH: B1 VH
VL: B1 VL with H39I, H94G
notes: one-arm IgG as m2
B44: GLS3000 H34K (antibody, name in Kabat numbering, V domains shown)
VH: B1 VH
VL: B1 VL with H39K, H94G
notes: one-arm IgG as m2
B45: GLS3000 H34L (antibody, name in Kabat numbering, V domains shown)
VH: B1 VH
VL: B1 VL with H39L, H94G
notes: one-arm IgG as m2
B46: GLS3000 H34M (antibody, name in Kabat numbering, V domains shown)
VH: B1 VH
VL: B1 VL with H39M, H94G
notes: one-arm IgG as m2

molecular target: T1, CD3 epsilon homodimer protein (UniProt P07766 23-126); test: SPR Biacore T200, CD3e homodimer on chip, vs unaltered GLS3000 antibody
T1 construct: also called CD3 (CD3 epsilon)
T1 sequence (P07766 23-126): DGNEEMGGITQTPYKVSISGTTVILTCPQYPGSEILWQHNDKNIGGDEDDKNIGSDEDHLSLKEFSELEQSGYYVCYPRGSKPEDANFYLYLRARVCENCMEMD
Procedure: An appropriate amount of CD3 epsilon homodimer protein was immobilized onto Sensor chip CM4 (GE Healthcare Japan Corp.) by the amine coupling method. Then, the antibody having an appropriate concentration was injected thereto as an analyte and allowed to interact with the CD3 epsilon homodimer protein on the sensor chip. Then, the sensor chip was regenerated by the injection of 10 mmol/L glycine-HCl (pH 1.5). The assay was conducted at 25 degrees C., and HBS-EP+(GE Healthcare Japan Corp.) was used as a running buffer. […] Each parameter was calculated using Biacore T200 Evaluation Software (GE Healthcare Japan Corp.).

First: B1
Second: B2
The “ratio of amounts bound (Z=Y/X)” value of the first is lower: 0.7 for the first, 1.07 for the second.

Compared with B3, B4 is higher in “ratio of amounts bound (Z=Y/X)” value: 0.4 for the first, 0.94 for the second.

First: B5
Second: B6
The “ratio of amounts bound (Z=Y/X)” value of the first is lower: 0.52 for the first, 0.8 for the second.

First: B7
Second: B8
The “ratio of amounts bound (Z=Y/X)” value of the first is lower: 0.35 for the first, 0.38 for the second.

Compared with B9, B10 is higher in “ratio of amounts bound (Z=Y/X)” value: 0.19 for the first, 1.03 for the second.

Going from B11 to B12, the “ratio of amounts bound (Z=Y/X)” value falls from 1.63 to 0.5.

First: B13
Second: B14
The “ratio of amounts bound (Z=Y/X)” value of the first is higher: 1.19 for the first, 0.27 for the second.

B15 and B16 are the same in “ratio of amounts bound (Z=Y/X)” value: 0.16 for the first, 0.16 for the second.

Compared with B17, B18 is lower in “ratio of amounts bound (Z=Y/X)” value: 0.27 for the first, 0.26 for the second.

Compared with B19, B20 is lower in “ratio of amounts bound (Z=Y/X)” value: 0.26 for the first, 0.17 for the second.

First: B21
Second: B22
The “ratio of amounts bound (Z=Y/X)” value of the first is lower: 0.22 for the first, 0.23 for the second.

Compared with B23, B24 is lower in “ratio of amounts bound (Z=Y/X)” value: 0.63 for the first, 0.3 for the second.

Going from B25 to B26, the “ratio of amounts bound (Z=Y/X)” value rises from 0.26 to 0.29.

B27 and B28 are the same in “ratio of amounts bound (Z=Y/X)” value: 0.3 for the first, 0.3 for the second.

First: B29
Second: B30
The “ratio of amounts bound (Z=Y/X)” value of the first is higher: 0.3 for the first, 0.24 for the second.

Compared with B31, B32 is higher in “ratio of amounts bound (Z=Y/X)” value: 0.25 for the first, 0.31 for the second.

First: B33
Second: B34
The “ratio of amounts bound (Z=Y/X)” value of the first is higher: 0.32 for the first, 0.29 for the second.

Going from B35 to B36, the “ratio of amounts bound (Z=Y/X)” value rises from 0.3 to 0.39.

Compared with B37, B38 is higher in “ratio of amounts bound (Z=Y/X)” value: 0.64 for the first, 1.06 for the second.

Going from B39 to B40, the “ratio of amounts bound (Z=Y/X)” value rises from 0.22 to 0.23.

Compared with B41, B42 is higher in “ratio of amounts bound (Z=Y/X)” value: 0.27 for the first, 1.02 for the second.

Going from B43 to B44, the “ratio of amounts bound (Z=Y/X)” value rises from 0.65 to 2.17.

Compared with B45, B46 is lower in “ratio of amounts bound (Z=Y/X)” value: 0.59 for the first, 0.35 for the second.
